Test: yeast display, Sf9 membrane polyspecificity reagent, FACS + sequencing; frameworks hold sequencing errors
Procedure, shortened: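 Nanobodies came from a synthetic yeast display library in Saccharomyces cerevisiae BJ5465, induced with galactose for 36–48 hours and stained for 1 hour at 4 °C with 10% biotinylated, detergent-solubilized Sf9 membrane reagent. Cells were enriched on streptavidin microbeads and then FACS-sorted, with low and high (top ~1%) gates set on anti-HA fluorescence for expression and streptavidin fluorescence for reagent binding. Each polyreactivity label reflects the gate a clone came from. Genes were amplified by colony PCR, sequenced by MiSeq 2 × 250 and filtered by CDR length.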

| Sequence | polyreactivity (PSR sort gate) |
| --- | --- |
| QVQLVESGGGLVQAGGSLRLSCAASGFTFVLYAMGWYRQAPGKERELVADITEGGDNTYYADSVKGRFTISRDNAKNTVYLQMNSLKPEDTAVYYCNARASRLYPPYDYWGQGTQVTVSS | high polyreactivity |
| QVQLVESGGGLVQAGGSLRLSCAASGFTFVNNAMGWYRQAPGKERELVAAISGGGTTNYADSVKGRFTISRDNAKNTVYLQMNSLKPEDTAVYYCAARRYFGLWYFWYDYWGQGTQVTVSS | high polyreactivity |
| QVQLVESGGGLVQAGGSLRLSCAASGFTFVNYAMGWYRQAPGKERELVAAISFRSARTYYADSVKGRFTISRDNAKNNVYLQMNSLKPEDTAVYYCAARVSRRFDYWGQGTQVTVSS | high polyreactivity |
| QVQLVESGGGLVQAGGSLRLSCAASGFTFVPYAMGWYRQAPGKEREFVATISWSAGRTYYADSVKGRFTISRDNAKNTVYLQMNSLKPEDTAVYYCNARQWCQRYSKVRYDFWGQGTQVTVSS | high polyreactivity |
| QVQLVESGGGLVQAGGSLRLSCAASGFTFVQYAMGWYRQAPGKERELVATISKSGGITYYADSVKGRFTISRDNAKNTVFLQMNSLKPEVTAVYYCAAAWYYSSRGFHATWGHDYWGQGTQVTVSS | low polyreactivity |
| QVQLVESGGGLVQAGGSLRLSCAASGFTFVRNALGWYRPAPGKERELVAAITDAGRTTYADSVKGRFTISRDNAKNTVYLQMNSLKPEDTAVYYCAKGKWWGWPWYSMDYWGQGTQVTVSS | low polyreactivity |
| QVQLVESGGGLVQAGGSLRLSCAASGFTFVRYAMGWYRQAPGKDRELVAAISKSGGRTYYTDSVKGRFTISRDNAKTTVYLQMNSLKPEDTAVYYCAADPVSDYYGYGYWGQGTQVTVSS | high polyreactivity |
| QVQLVESGGGLVQAGGSLRLSCAASGFTFVSNAMGWYRQAPGKERELVAAITYSGTRTYYADSVKGRFTISRDNAKNTVYLQMNSLKPEDTAVYYCAARRGYASAYYYWGQGTQVTVSS | high polyreactivity |
| QVQLVESGGGLVQAGGSLRLSCAASGFTFVSNAMVWSRQAPGKERELVADITSDGSTNYADSVKGRFTISRDNAKNTVYLQMNSLKPEDTAVYHCATDQRSNTWVNQFDYWGQGTQVTVSS | low polyreactivity |
| QVQLVESGGGLVQAGGSLRLSCAASGFTFVSYAMGWYRQAPGKERELVAAISSRVVSTYYADSVKGRFTISRDNAKNTVYLQMNSLKPEDTAVYYCATDRYAYKLYDYWGQGTQVTVSS | low polyreactivity |
| QVQLVESGGGLVQAGGSLRLSCAASGFTFVSYAMGWYRQAPGKERELVAVIDNSDGDTYYADSVKGRFTISRDNAKNTVYLQMNSLKPEDTAVYYCAADAVIEWTDWYSAWWYYYWGQGTQVTVSS | low polyreactivity |
| QVQLVESGGGLVQAGGSLRLSCAASGFTFVVNAMAWYRQAPGKEREFVAAIRQSGGSTYYADSVKGRFTISRDNAKNTVYLQMNSLKPEDTAVYYCNAEDWGYGYDYWGQGTQVTVSS | low polyreactivity |
| QVQLVESGGGLVQAGGSLRLSCAASGFTFVVYAMGWYRQAPGKERELVAAIRRTGGSTYYADSVKGRFTISRDNAKNTVYLQMNSLKPEDTAVYYCAAHAISYQSRYRYRYGSVDYWGQGTQVTVSS | high polyreactivity |
| QVQLVESGGGLVQAGGSLRLSCAASGFTFVYYAMGWYRQAPGKEREFAYYADSVKGRFTISRDNAKNTVYLQMNSLKPEDTAVYYCNAAEDEGDRPITQVGYDYWGQGTQVTVSS | low polyreactivity |
| QVQLVESGGGLVQAGGSLRLSCAASGFTFVYYAMGWYRQAPGKERELVAAISRGGSTYYADSVKGRFTISRDNAKNTVYLQMNSLKPEDTAVYYCNAKKSGHYVSYPAYDYWGQGTQVTVSS | low polyreactivity |
| QVQLVESGGGLVQAGGSLRLSCAASGFTFVYYTMGWYRQAPGKERELVAAITSGGRTYYADSVKGRFTISRDNAKNTVYLQMNSLKPEDTAVYYCAAPDRYRGYIGYGYWGQGTQVTVSS | high polyreactivity |
| QVQLVESGGGLVQAGGSLRLSCAASGFTFWAYAMGWYRQAPGKERELVAAISGSGGNTYYADSVKGRFTISRDNAKNTVYLQMNSLKPEDTAVYYCAVEDAGQGGDYWGQGTQVTVSS | low polyreactivity |
| QVQLVESGGGLVQAGGSLRLSCAASGFTFWAYAMGWYRQAPGKERELVAVISGSGGRTYYADSVKGRFTISRDNAKNTVYLQMNSLKPEDTAVYYCNARYPRLHRTYNYWGQGTLVTVSS | high polyreactivity |
| QVQLVESGGGLVQAGGSLRLSCAASGFTFWDNAMGWYRQAPGKERELVAAISRRGGTTYYADSVKVRFTISRDNAKNTVYLQMNSLKPEDTAVYYCNKAFSLQIYATGMGYWGQGTQVTVSS | high polyreactivity |
| QVQLVESGGGLVQAGGSLRLSCAASGFTFWDYDLGWSRQATGKERELVAAISDNDGSTDYADSVKGRITISRDNVKNTVFLQMNRLKPEESAVYYCNAEIEMPSKEGDYWGLGTQVTVSS | low polyreactivity |
| QVQLVESGGGLVQAGGSLRLSCAASGFTFWDYTMGWYRQAPAKERELVAAINRGGNTYYADSVKGRFTISRDNAKNTVYLQMNSLKPEDSADYYCAARRRSRQYRYDYWGQGTQVTVSS | high polyreactivity |
| QVQLVESGGGLVQAGGSLRLSCAASGFTFWGNAMGWYRQAPGKERELVAAISRSGGRTYYADSVKGRFTISRDNAKNTVYLQMNSLKPEDTAVYYCAAGSSHHFDYEGGYWGQGTQVTVSS | low polyreactivity |

| Sequence | polyreactivity (PSR sort gate) |
| --- | --- |
| QVQLVESGGGLVQAGGSLRLSCAASGFTFWKYAMGWYRQAPGKEREFVPAISWSGGNTYYADSVKGRFTISRDNAKNTVYLQMNSLKPEDTADYYCARRGRYYLYTDDYDYWGQGTQVTVSS | high polyreactivity |
| QVQLVESGGGLVQAGGSLRLSCAASGFTFWKYSMGWYRQAPGKERELVATITSSGDNTYYADSVKGRFTISRDNAKNTVYLQMNSLKPEDTAVYYCAADNGYHYNFDYWGQGTQVTVSS | low polyreactivity |
| QVQLVESGGGLVQAGGSLRLSCAASGFTFWLYAMGWYRQAPGKERELVAAIDWDGGTYYADSVKGRFTISRDNAKNTVYLQMNSLKPEDTAVYYCAARYRYYYTRYDYWGQGTQVTVSS | high polyreactivity |
| QVQLVESGGGLVQAGGSLRLSCAASGFTFWLYSMGWDRQAPGKEREFVAAISTSGGSTYADSVKGRFTISRDNAKNTVYLLMNSLKPEDTAVYYCAGVYTYPLGYYHYTYDYWGQGTQVTVSS | low polyreactivity |
| QVQLVESGGGLVQAGGSLRLSCAASGFTFWLYSMGWYRQAPGKERELVAAISWSGGSTYYADSVKGRFTISRDNAKNTVYFQMNSMKPEDPAVYYCAAVKYVRCAEFYYWGQGTQVTVSS | high polyreactivity |
| QVQLVESGGGLVQAGGSLRLSCAASGFTFWLYTMGWYRQAPGKERELVAAISWSGGSTYYADSVKGRFTISRDTAKNTVYLQMNSLKPEDTAVYYCNALYVGYYDSMGYWGQGTQVTVSS | high polyreactivity |
| QVQLVESGGGLVQAGGSLRLSCAASGFTFWQYAMGWNRQAPGKERELVAAITWDVGSTYYSDSVKGRFTISRDNAKNTVYLQLNSLKPEDTAVYYCAKLIGGTYYEDDYWGQGSQVTVSS | low polyreactivity |
| QVQLVESGGGLVQAGGSLRLSCAASGFTFWQYAMGWYRQAPGKERELGAAITWDGGSTYYADSVKGRFTISRDTAKNTVYLQMNSLKPEDTAVYYRAKLFGGTYYEYDYWGQGTQVTVSS | low polyreactivity |
| QVQLVESGGGLVQAGGSLRLSCAASGFTFWRNTMGWYRQAPGKERELVAGISGSGGSTYYADSVKGRFTISRDNAKNTVYLQMNSLKPEDTAVYYCAVRGGYTWPTYNYWGQGTQVTVSS | high polyreactivity |
| QVQLVESGGGLVQAGGSLRLSCAASGFTFWRNVMGWYRQAPGKERELVAVISRGGSTNYADSVKGRFTISRDNAKNTVYLKMNSLIPEDTAVYYFAKYARGPSKVDYWGQGTQVTVSS | high polyreactivity |
| QVQLVESGGGLVQAGGSLRLSCAASGFTFWSYAMGWYRQAPGKERELVAAISSSGDSTYYADSVKGRFTISRDNAKNTVYLQMNSLKPEDTAVYYCAAEYQYLSVEVTDIWYLTKYDYWGQGTQVTVSS | low polyreactivity |
| QVQLVESGGGLVQAGGSLRLSCAASGFTFWVYAMGWYRQAPGKEREFVASISWTGDTTYYADSVKGRFTISRDNAKNTVYLQMNSLKPEDTAVYYCAGDTILGYDYWGQGTQVTVSS | low polyreactivity |
| QVQLVESGGGLVQAGGSLRLSCAASGFTFWVYAMGWYRQAPGKERELVAAISARGGSTYYADSVKVRFTISRDNAKNTVYLQMNRLKPEDTAVYYCAAEPSGKRSKFYYWGQGTQVTVSS | high polyreactivity |
| QVQLVESGGGLVQAGGSLRLSCAASGFTFWYYAMGWYRQAPGKERELVAAITYTGDRTYYADSVKGRFTISRDNAKNTVYLQMNSLKREDTAVYYCDVYLGIRSGTANDYWGQGTQVTVSS | high polyreactivity |
| QVQLVESGGGLVQAGGSLRLSCAASGFTFYANAMGWYRQAPGKERELVAAITQGGDSTYFADSVKGRFTISRDNAKKSVYLQLNSLKREDTAVYYCNTDLLCEYDYWGQGTQVTVSS | low polyreactivity |
| QVQLVESGGGLVQAGGSLRLSCAASGFTFYAYAMGWYRQAPGKERELVAAISSRGGRTYYADSVKGRFTISRDNAKNTVYLQMNSLKPEDTAVYYCIVPYYSFRELSSYYWGQGTQVTVSS | high polyreactivity |
| QVQLVESGGGLVQAGGSLRLSCAASGFTFYDNAMGWYRQAPGKERELVAAISWSGGSTYADSVKGRFTISRDNAKNTVYVQMNSLKPEDTAVYYCNADAWLASGYRYDYWGQGTQVTVSS | low polyreactivity |
| QVQLVESGGGLVQAGGSLRLSCAASGFTFYDYAMGLYRQAPGKERELVAGISRDGGTTYYSDSVKGRFTISRDNAKNTVYLQMNSLKPEDTAVYYCAVDFLDWYQDYYITYDYWGQGSQVTVSS | low polyreactivity |
| QVQLVESGGGLVQAGGSLRLSCAASGFTFYDYAMVWYRQAPGKERELVAGITSTGRTYYADSVKGRFTISRDNAKNTVYLQMNSLKPEDTAVYYCNARTLPNYYRRYDYWGQGTEVTVSS | high polyreactivity |
| QVQLVESGGGLVQAGGSLRLSCAASGFTFYGYAMGWYRQAPGKEREFVAAISSRGGRTYYADSVKGRFTISRDNAKNTVYLQMNSLKPEDTAVYYCARRRATGRFSLDYWGQGTQVTVSS | high polyreactivity |
| QVQLVESGGGLVQAGGSLRLSCAASGFTFYGYAMGWYRQAPGKERELVAAINSGAITNYADSVKGRFTISRDNAKNTVYLQMNSLKPEDTAVYYCAASYRRLTGVGADEYWGQGTQVTVSS | high polyreactivity |

From the nanobody polyreactivity screen of Harvey et al. (2022)
